Experimental data published in patent US20090074762A1.

Target: T1, TweakR on cells (TweakR-expressing cells, TweakR transfectant cell line, A375 melanoma cells, tumor tissue) (human) (UniProt Q9NP84)
T1 sequence: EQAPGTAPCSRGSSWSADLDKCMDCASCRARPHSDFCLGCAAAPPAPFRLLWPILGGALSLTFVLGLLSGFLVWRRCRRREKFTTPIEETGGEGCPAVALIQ
Test: cell-based or functional assay

Substance anti-TweakR antibody ITEM2 has an agonist activity (IL-8 release assay) of 28%.
